Our source for the IC50 values is the Immune Epitope Database (IEDB).

pIC50: −log10 of the molar value.

The target in this experiment is HLA-A*02:01. Kind of experiment: IEDB peptide-MHC binding, purified MHC/competitive/radioactivity; ≥ and ≤ were set here for values at or beyond the usual limits of such assays. As to conditions: source organism: Homo sapiens.
In the case of ALCRWGLLLA, the pIC50 (usually the negative decadic logarithm of the IC50, by convention in mol/L) is 6.86.
GIMIGVLVGV: the pIC50 is 7.43.
In the case of HLFIYATCLGL it was 7.27.
In the case of KIWEELSML, the pIC50 was 6.78.
Take KMVELVHFL: the pIC50 was 8.01.
Turning to KVAELVHFLL, the pIC50 was 7.25.
Take LLGICLTSTV: the pIC50 is 6.99.
